From the supplement of paper PMC12636428

Test system: Saccharomyces cerevisiae
Experiment: transcriptional activation domain activity (GFP:mCherry ratio, weighted mean of sorted bins, harmonized to initial dataset scale) (arbitrary fluorescence ratio units); higher = stronger transcriptional activation
Conditions: beta-estradiol 1 µM; induction time 4 h
Experimental: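 53-aa protein tiles (fungal proteins plus yeast TF control tiles) fused C-terminally to a DBD-estrogen-binding domain-mCherry synthetic TF, integrated in S. cerevisiae (URA3 locus) with a GFP reporter. Cells were induced with 1 uM beta-estradiol for 4 h at 30 C, FACS-sorted into 8 bins by GFP:mCherry ratio and barcodes sequenced. Activity is the read-weighted mean bin fluorescence (GFP:mCherry), averaged over barcodes (median 12); tiles under 50 reads were discarded. New active-learning values were harmonized by linear fit onto the scale of the initial (Hummel et al.) dataset. The assay saturates at low and high signal.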

Sequence	transcriptional activation domain activity
EPESKPAPARGAQPAQRGNFRGGRGGHRGARGGRGRGGYQERPRRQEEEKPTK	9620
GVDERRAIVESFVKRVTHKYLRHCDPSEPVLLLSSLVIKLIFARFWLLVYRPQ	44900
APFFLPPFHFFFPFFPFPFFLGSFPFLFSFPFPFSFPFFLFHFPSFFPFLPSF	65400
DAPEKEPEAEAAKPKGRGGRPKKVVPPAAAAPAPKEKEEPKPKAAAGRKRKAP	32100
CWVVWGRRWLIVLLPIICLITATVSKVLQVYLVNSNAYMLYEVFLMLYISFVL	44100
MDNQAGEQKPKQRRVADRERKRAVRACDGCRRQKEKCDGGVPCRRCIRLRRQC	53600
EKDKKEETKDEPKKNEVKPETKDDVDEKKDENGRPKLVVKRLRKETTAAAAVA	37600
MHTLVLDFDEDVVEQALRLFNLNSRALTTFLSLLVMEYGIALGPMRHRWITSP	18100
MMRRWNELGLDGWVQNQHGLDSFAFLQLAFRLPICCIFPSKILVVFPLLLLSA	52900
LTEHSNVNSVIWTNDLLNLNFTNILNMGLYINPKNLIPISGNNNNNKSNEEDD	62300
MCGGGWAFGLFFFFLYFFFFFLHIALLLPPLETVYFVLFFCMISRGLCFIFFF	65400
MFHSIYLVVPSFHPSHALIVSFLFSLLRITLHLLLHFLVLYLLLCILFFWHPE	43100
TGAGTGAFGSTNNTTSNGGIFGSQPPATGNAFGGGGAFGQNKPATGFGAAPST	40200
MSIPPRLFYITFLLCFFNLLAYFHSLLFLSFNFPLQYLFTVNSVMHLVVSLPG	53900
PAPAPAPAPRKGRSKKPVASPSASPVLAPAPAPAIALRKGRSKKPVASPSASP	36100
DQGLTDCGDVRHTKVVSLSYHFSPDYNDPTIIPVVTRWCTEIGKLTLTGITFV	62400
MLFVFAQLHQVPLSEYFLLGCLYWFFYHIIFSSIFRPSHSIGMASGLPMLYTP	45000
DSLFFDHDLLSSSITNTNNGQGSNNGRQASKDDTLNLLDTTVNSNNNHNANNE	32900
VLEQLNLINHFYQFSLKFFLDIFEYVLRQNPNLQNVTDHHARREILFNDIFLV	33600
NIHLVNMAQVVVIFFHRLLYGIIPLFEITTCAFFPVLVSLWHLAYILFYVVMF	69100
GTLNAQVTICEYSSTGQPLNGQGGCYNLHPVFNWIHHCIMSIFLVFMIAWLPL	78500
MGLWARFICFVIVCFQITFLYCLFSCSPSFLYFQKTQPLFFTFFFSFPSFLLL	56800
SPLPPPSPFFPLQPLSLFHLSPLFSPVSLHFPCFSPFPPPLPPFFLPLLPLLS	60500
SLLEELTMRLLETDESHIKKIKDLSRFVNMIILRLFATGRRMSIFRSLFALLL	62600
AGAKQLAYPQKLALIQYSDHISLNILVGKGWQELNAELVCLFVILARNIFVML	45600
LLQMDKAGFVKDEITDVFALVVCRNLSLFHICAYILNVYRNYIMMVLEALRAQ	64800
MVKGRGRGGQVLFLFLFLLLFFLFLFLSLFLFILFFLALFFWTFFVLFCFVWG	66200

Sequence	transcriptional activation domain activity
LLGVLTLLLLYCNVVLITYHVPTWSRPLDIAFIHAPVRLFFILPLSLLFPYSL	56100
PILYFLSLSLSLPPSLSLFLFLYIINQISRFWLVLFQLFFLFLFLLFPSILTS	62800
ETSDEAKSEDSSSDEGDDSSSSEDDGRKRSRKKSVIKMRKTKAKKTKKKGKKS	39300
IKQQWSVFVLWSIWYRIAFTPVFWRNLGRRNLGGLIMILMNEYREVILFYWDM	48500
MLCIRYLIYFLLLGESLVGSFLPPFTIYISLFFSSSIPCSTWVSFPLLHHTYL	35900
MLPRQRHSFWSVVTYLIMYYIIMYAFLYGIKYTHWIYFLSNHLVMWLLLLHFL	41100
GKDAEAADKPIEGKDAGDVEMNDAPEKEPEAEAAKPKGRGGRPKKVVPAAAAP	23900
MITRCHLIIFLFWLLLLLLLFRCWATFLCISAWLFAKQEKQTFCQPCLLIMRV	38200
RRRLNYISTRGLPHFFVLLFLIGLLILIVAMRVCLHILSKSSPLFFFLLILGC	38500
IFLFHINHAVFKSVVWWIGVFFFVYVLITIMPILRYDSPYYSPLSASVWFLYT	45800
YLVMVYAWILWLSLVVLLALIAFYLFMVIWNIDRGTPSPVCLVVFCMQFICTL	44200
MTGTTLLPPPFISNDVTNSADSTNIKPSPSSSVDNLNDYLTDINSLAWGVNSL	67600
KQYCVRPNSGRIEPGKEVEVQVILQAMKQEPPPDTKCRDKFLVQAVAIAADKE	29700
GAQTSGPSSSAGSNNNSSSSSSEEDEPATGGSNGTQLKGKPRKTAAKRATSSG	35300
AQSSPVRASPHPADSPSKPAAKPVSKPATAAPPAASKPTTAAAPKAAAAKPVS	27200
FQAQGDDELTVVEGDALWIIEQEGDEWWKCRNIKGDEGVVCVVIPRPTGAGRL	36300
EKLVMNILEAVRLFHSIFDGLIAKALDEFAHLSRQARTMLSFFVIHIHLGVLH	71300
LHFCHRLLSRISSLLFCFLFYCLDVLFLSLFLLCFFFPFFFFLFFLFLFQHFA	54800
MFGYDSSRSSCSFLLPRESSIRLMVYFLYLLRVFYLLFFVFHLFLLPSSLFFF	41200
LSDDEEEEGGKGREGEGRERKRRGREGKRKGGEERGRGRGREGEREGGEGEGG	27300
MPAIFFGSQIGGETLQPLSYTGLPWKLLIQDILLFLRWCYYLPNIVIPLWPWP	67400
SGSNINNNDNVKLPSNFKNYYDPPMSSLDISMDVPDIFGSLDFFDYDLLFQND	179000
SPSRNAERPSPAAPAAMERGPDGRPRLKLAPRSAPRTETPSPAPVAPPAPVHV	29400
KYNLALILAGFFRFIPWISVLLLLLLSLSPRARSLFPWPISSILLLYTLADTI	39400
TADTAAASTSQPKLAQDQQQATDGENSEKRKPGRPRGSRNRKPRASVGSATKA	37800
MLLPFVCLLFFLLAFLFSLSLSALFCFSKRRLIPILFFIASLLLYNFVFPPFF	38400
MVLLCAYERVGLGRSIGFGIFFFLPLFLLLLLTHFSFLFFFFAFTFILMMACL	57800

Sequence	transcriptional activation domain activity
RIVGESASTHAVCVSLPRDVYQASDGEEDLMGSVPQVLPALVCSCTRASSIVH	68500
EQDAFFPWLWIDPQFPEDPVLGSWDTFLGDFNCGMPLDDLDFALDMLQYSVGA	161000
SAGYYSRVSFFFFSNYHLIILHVFFFFFFFVYWVYFSSSDFFFLLGLTIFCFF	57900
MSLLLCFRVLIFIYPLRVSFLVCSWLYILLFYMSLFHSSVICPHVKMNLFISL	43900
MGFCSLYGSIFLFLFLVFFLLFFSSSVGNGASFFFFFPSILFWYSLYPLFTSF	35900
HLCHLVPSLPFHLPFFFFEPFLSKTFTSFFLFFFLWLSPLNTNHPPIFLFFHT	80200
EKGGGRDGETAAVEGEKEVQNGDAQTEADGNASTDGGTKRRRKGKKAAAEADD	24100
GKGEKDSKDNEKGEGEKKGENRRGRRRGGRGRGGGGDKDKENNKDGGGGRGEK	30500
MFKCRNRYCYGSCVDLLCYLILGLDFLWIFCFLFFKRFFFRFLLSIPFSFFPS	64600
SNKRNKDENRGRSRTRSASRGRSRSASVFSDARSRSRARSRSRAATMAKAGAA	36300
SPWSLPHLESKFVEDGLYYAIQVISYISKINSKASYYYYQIRMLLVASRFIMQ	46000
APPAAAAAAAAAPAKKAKKAKKAKKAGLLQKAKKAKKAKKAKKAAAAAAAPAA	8130
FPPLFVSPLRLRYPFCGILFNIDTLFFRFLLVHIWLPFFCTYLYPYLLPFHWA	74200
RKEKGRNANNAKKGQNKRGGAQKEKAKTKVKSGEVSAEPGMKRGKRGRRRAAA	48200
LLMGLYLSEICMIGLFVLRDAFGPMVLMVMFFVLSILVHLSLADAFSPLLYNL	52200
MIPSVMIRTSDYSLVIILSLCLVLKMMLICIVCSIESYLTNLDKWLFCLILCK	51300
GRPAKSQAEEPVEAAPEPKKRDRQANVAPEPVIEEAPVVKKGRGRPKKDAVTV	29600
KQYCVRPNSGRIEPGSDVEVQILLQAMKEDPPLEAKCRDKFLVQSVAVSADKE	45400
RLDATAEEEAKRQRACEACRALKVRCDRGSDDSPCKRCEKARRECVITQPSRK	40300
MFIFFKILILILLINIISITSFRLGAMLHYCIGHWDCMGNYLDCVFRLGFLFI	59000
MLSLKSFLPLQASLLFAAVGPISLFSLSDDVVRHIFCLKLQIFYLRFLLKWEH	43700
VKPASRASAKPPSTTGAKKPASRASSRKPASKVGKEDKENGDAAAASAAAPDT	25100
MGGVWGFLWSFFFLFPLFFFSLSKDGLDCFISFILVSFYFFSFLFCIHVFFFS	15600
SFSVLNLNLGKIENDGNESNEDYLGNEKFYLNEILPDEESKLRWKRVFENSEN	52600
LLLESEPLFRCTLPTIRDNISAYLSFLQIPNGNATEELPQWMPYILLIFEILL	54400
